One data set addresses hcGAS-FL (Homo sapiens, UniProt Q8N884 1-522). Put plainly: fluorescence polarization; 300 nM protein, 40 nM DNA; XQ2 competes with IC50 19.2 ± 6.7 uM (inhibitor value, not DNA affinity); FP: 20 mM HEPES pH 7.5, 125 mM KCl, 10 mM MgCl2; 300 nM cGAS, 40 nM FAM-ISD; temperature not stated. MST conditions not given in the material. The conditions noted are these: protein: recombinant; tags: 6xHis-SUMO removed by ULP1; label: 5'-FAM on sense strand; blunt. (In general: Fluorescence polarisation rises when a labelled molecule tumbles more slowly, as on binding a larger partner.)

The next data set deals with hcGAS-FL (D191R) (Homo sapiens, UniProt Q8N884 1-522, D191R). The experiment in a line: fluorescence polarization; D191R did not interfere with dsDNA binding; XQ2 inhibition markedly reduced; FP: 20 mM HEPES pH 7.5, 125 mM KCl, 10 mM MgCl2; 300 nM cGAS, 40 nM FAM-ISD; temperature not stated. MST conditions not given in the material. The conditions noted are these: protein: recombinant; tags: 6xHis-SUMO removed by ULP1; label: 5'-FAM on sense strand; blunt.
Sequence of hcGAS-FL (D191R) (Q8N884 whole entry D191R): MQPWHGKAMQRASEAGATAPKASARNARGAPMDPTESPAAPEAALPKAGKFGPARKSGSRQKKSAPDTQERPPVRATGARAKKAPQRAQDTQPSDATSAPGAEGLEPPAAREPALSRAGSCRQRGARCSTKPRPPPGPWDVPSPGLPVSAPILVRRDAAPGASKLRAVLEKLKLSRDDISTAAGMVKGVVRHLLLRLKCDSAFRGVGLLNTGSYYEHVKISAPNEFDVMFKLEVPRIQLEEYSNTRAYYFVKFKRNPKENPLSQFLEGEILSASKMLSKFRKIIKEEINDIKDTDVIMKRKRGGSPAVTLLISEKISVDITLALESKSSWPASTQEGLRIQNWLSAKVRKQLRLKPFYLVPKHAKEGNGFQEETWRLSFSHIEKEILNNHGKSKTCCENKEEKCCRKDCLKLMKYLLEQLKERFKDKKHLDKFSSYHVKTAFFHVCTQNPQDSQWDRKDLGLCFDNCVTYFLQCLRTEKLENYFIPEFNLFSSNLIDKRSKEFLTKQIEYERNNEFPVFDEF

The text below walks through data of paper PMC10545747, “Development of cyclopeptide inhibitors of cGAS targeting protein-DNA interaction and phase separation”.

Sequence of hcGAS-FL (Q8N884 whole entry): as the sequence (Q8N884 whole entry D191R) above, with R191D counted along it

B1: 45-bp FAM-ISD (dsDNA)
DNA 1: TACAGATCTACTAGTGATCTATGACTGATCTGTACATGATCTACA
DNA 2: TGTAGATCATGTACAGATCAGTCATAGATCACTAGTAGATCTGTA
Turning to B1, the binding result in the data set with hcGAS-FL and with hcGAS-FL (D191R) was “binds” throughout.
